B1: ISL2 (parent)
chain: HYPFLGAMGDHSKKKPGTAMCVGC

Variants of: B1
Experiment: protein stability index of a GFP-peptide fusion (GPS, HEK-293T) (PSI 1-6); higher = more stable
Conditions: c terminus: a fixed tail appended
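Further: lentivirally expressed fusions sorted by FACS into six bins by GFP to DsRed ratio, PSI derived from sequencing read proportions per bin multiplied by bin number.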

Protein stability index, by site and new letter:
A7: H 2.45 | I 1.9 | N 3.6 | P 2.6 | G 2.99 | Q 3.22
K15: M 2.2 | D 2.75 | E 2.77 | N 2.61 | Q 2.52 | W 1.67 | F 2.07 | C 3.46 | H 2.47 | P 2.4 | G 2.37 | Y 2.02 | V 2.13 | T 2.75 | I 2.05 | L 2.42 | S 2.52 | A 2.27
L5: F 3.19 | W 2.23 | H 2.96 | T 2.96 | S 3.1 | C 3.56 | P 3.13 | E 3.78 | A 3.15 | N 2.49 | K 2.47 | Y 2.2 | Q 3.16 | D 3.75 | V 2.63 | G 3.5 | R 2.66 | I 3.14 | M 3.01
D10: R 2.07 | A 2.39 | C 2.6 | M 1.79 | Q 1.78 | K 1.88 | E 3.69 | V 1.7 | N 2.07 | T 2.37 | W 1.64 | P 2.35 | L 2.39 | G 2.18 | S 2.86 | H 2.52 | Y 1.56 | I 2.2 | F 1.81
G9: V 2.09 | I 1.95 | S 2.65 | E 3.58 | P 2.96 | A 3.37 | Y 2.31 | D 2.85 | F 1.7 | L 2.4 | M 2.65 | C 3.51 | N 2.58 | T 2.82 | H 3.05 | Q 2.77 | R 2.19 | W 1.86 | K 2.52
K13: F 2.34 | S 2.64 | Q 2.69 | A 2.15 | C 3.8 | R 1.8 | Y 2.06 | H 3.04 | I 2.04 | E 3.07 | L 2.23 | N 2.79 | D 3.18 | P 2.84 | T 2.8 | V 2.4 | G 2.65 | M 2.31 | W 1.9
P16: K 2.24 | F 1.62 | E 3.07 | I 1.67 | D 3.02 | A 2.52 | G 2.19 | C 3.12 | L 2.17 | H 2.61
G6: Y 2.49 | T 2.81 | C 3.15 | R 2.13 | S 2.32 | F 1.86 | K 2.92 | Q 2.81 | E 3.16 | I 2.27 | H 2.46 | V 1.93 | L 2.07 | A 3.07 | W 1.75 | P 2.83 | N 2.54 | M 2.07 | D 3.2
F4: T 3.19 | V 3.3 | Y 2.21 | S 3.48 | A 3.75 | G 3.25 | D 3.83 | R 2.89 | I 3.03 | E 4.72 | M 3.48 | K 2.92 | C 3.27 | L 2.51 | N 3.38 | Q 3.58 | W 3.02 | H 3.73 | P 3.34
H11: G 2.81 | E 3.44 | S 2.35 | V 2.39 | N 2.92 | P 3.16 | K 2.9 | F 2.19 | Y 1.99 | R 2.92 | C 2.64 | W 1.93 | T 2.45 | A 2.69 | I 2.33 | D 3.5 | Q 3.25 | L 2.21 | M 2.74
